B1: TPR t1 (parent)
chain: GACCAAUCUGCCCUCAGAGCUCGAGAACAUCUUCGGAUGCAGAGGAGGCAGGCUUCGGUGGCGCGAUAGCGCCAACGUCCUCAACCUCCAAUGCAUCCCACCACAUGAUGAUGCCUGAAGAGCCUUGGUUUUUUG

Variants of: B1
Assay: polymerase ribozyme fitness, log enrichment relative to wild type (log ratio); higher = more active; in vitro selection for triplet polymerase activity
Procedure, shortened: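 Mutant libraries for each subunit of a heterodimeric triplet polymerase ribozyme were made by PCR and then transcribed. Each library underwent one round of in vitro selection in triplicate: annealing with a biotinylated primer, the partner subunit and triplets, frozen incubation at −7 °C, gel excision of extended constructs, streptavidin-bead capture and RT-PCR. Input and output libraries were Illumina-sequenced, and only genotypes with ≥10 input reads and ≥1 read per output were kept. Fitness is the logarithm, base 2, of genotype enrichment over wild-type enrichment, computed from inverse-variance-weighted replicate averages.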
For G117U U133C, the “polymerase ribozyme fitness (log ratio)” value was -2.23. In the case of C28G U81A U87C, the “polymerase ribozyme fitness (log ratio)” value is reported as -2.99. In the case of A5C G69U A90U, the “polymerase ribozyme fitness (log ratio)” value is reported as -0.485. With G63U G77U U109A G135U the “polymerase ribozyme fitness (log ratio)” value was -7.04. For G39U G47A C86U C101A G113U, the “polymerase ribozyme fitness (log ratio)” value was -4.62. For G10C A66G A83U, the “polymerase ribozyme fitness (log ratio)” value was -1.48. In the case of G69U G71A A84C, the “polymerase ribozyme fitness (log ratio)” value is reported as -4.28. For C89G C98U, the “polymerase ribozyme fitness (log ratio)” value was -1.55. In the case of A6U G48A C123A, the “polymerase ribozyme fitness (log ratio)” value is reported as 0.913. In the case of C12A A43U, the “polymerase ribozyme fitness (log ratio)” value is reported as -2.89. For C22U C85A, the “polymerase ribozyme fitness (log ratio)” value was -6.28. In the case of C53U C114U, the “polymerase ribozyme fitness (log ratio)” value is reported as -1.76. For C80U A105C U112G G120C, the “polymerase ribozyme fitness (log ratio)” value was -3.27. In the case of A2G C12A C15U G45U U106A, the “polymerase ribozyme fitness (log ratio)” value is reported as -3.92. In the case of C8A A29U A90C, the “polymerase ribozyme fitness (log ratio)” value is reported as -2.87. With U7C G17C A121G the “polymerase ribozyme fitness (log ratio)” value was -1.82. In the case of U38A A46U, the “polymerase ribozyme fitness (log ratio)” value is reported as -2.42. With C13G G120A the “polymerase ribozyme fitness (log ratio)” value was -0.711. With G71C A121C C123U C124U the “polymerase ribozyme fitness (log ratio)” value was -2.8. In the case of A2G C89A, the “polymerase ribozyme fitness (log ratio)” value is reported as -2.01. For G60U A111G, the “polymerase ribozyme fitness (log ratio)” value was 0.488. With G35A C72U A75U G77C C97U G120A U125A the “polymerase ribozyme fitness (log ratio)” value was -6.29. For C28G G110A, the “polymerase ribozyme fitness (log ratio)” value was -1.49. In the case of C3G A29U G71A A119G, the “polymerase ribozyme fitness (log ratio)” value is reported as -2.72. With C53A U55A C82U the “polymerase ribozyme fitness (log ratio)” value was -0.263. For C49A G57A, the “polymerase ribozyme fitness (log ratio)” value was -1.5. With G36A U129G the “polymerase ribozyme fitness (log ratio)” value was -2.39. For G71U G93C G117C, the “polymerase ribozyme fitness (log ratio)” value was -4.78. For C13U G39C C72U U106G, the “polymerase ribozyme fitness (log ratio)” value was -2.03. For C22G U96G C104G, the “polymerase ribozyme fitness (log ratio)” value was -5.47. For A26U G71A C94U C123G U132C, the “polymerase ribozyme fitness (log ratio)” value was -2.78. In the case of C22A G110U, the “polymerase ribozyme fitness (log ratio)” value is reported as -5.03. With G36U U125A the “polymerase ribozyme fitness (log ratio)” value was -1.4. In the case of A27G A90U U116C, the “polymerase ribozyme fitness (log ratio)” value is reported as -6.7. With A91G G113C G120A the “polymerase ribozyme fitness (log ratio)” value was -3.31. For C8G G48C A50U C53A C62G U129C, the “polymerase ribozyme fitness (log ratio)” value was -2.9. In the case of C73A C82G G117U U130C, the “polymerase ribozyme fitness (log ratio)” value is reported as -0.953. For G71C A118U, the “polymerase ribozyme fitness (log ratio)” value was -0.826. For U14A C124A U130A, the “polymerase ribozyme fitness (log ratio)” value was 0.939. For C13U C70U, the “polymerase ribozyme fitness (log ratio)” value was -0.262. In the case of U78C C101U G120U A121U U132A, the “polymerase ribozyme fitness (log ratio)” value is reported as 1.42. For G71A C88A, the “polymerase ribozyme fitness (log ratio)” value was -0.898. In the case of G52U C73U, the “polymerase ribozyme fitness (log ratio)” value is reported as -0.9. With A46C C79A C85G the “polymerase ribozyme fitness (log ratio)” value was -5.69. In the case of C11A C49G C64U A121U, the “polymerase ribozyme fitness (log ratio)” value is reported as 0.957. With U7G C12G C49A G69U the “polymerase ribozyme fitness (log ratio)” value was 1.21. With G10U G23A U30G U32A G35U G51A C70G the “polymerase ribozyme fitness (log ratio)” value was -6.22. In the case of G61A G120A, the “polymerase ribozyme fitness (log ratio)” value is reported as 0.833. With C13G U32C A37G C49U the “polymerase ribozyme fitness (log ratio)” value was -1.77. With A5G A83G G110A the “polymerase ribozyme fitness (log ratio)” value was -2.14. With U112A U126C the “polymerase ribozyme fitness (log ratio)” value was 0.739. In the case of A5U C56G, the “polymerase ribozyme fitness (log ratio)” value is reported as -1.04. In the case of C64U C115U U130A, the “polymerase ribozyme fitness (log ratio)” value is reported as -1.66. For C4U A6C C13U G48U C49G C53U G113C, the “polymerase ribozyme fitness (log ratio)” value was -3.03. For C12U G44C C102U, the “polymerase ribozyme fitness (log ratio)” value was -2.5. With U7G G10C G45U C62A C115U the “polymerase ribozyme fitness (log ratio)” value was -3.58. For C13A G113A, the “polymerase ribozyme fitness (log ratio)” value was -2.48. With C15A G135U the “polymerase ribozyme fitness (log ratio)” value was -2.9. In the case of G42U C62A, the “polymerase ribozyme fitness (log ratio)” value is reported as -3.21. For U54A C62U C64U, the “polymerase ribozyme fitness (log ratio)” value was -0.217. With C86G C123U the “polymerase ribozyme fitness (log ratio)” value was 0.323. In the case of G35C G47A C56U A111G, the “polymerase ribozyme fitness (log ratio)” value is reported as -5.32. In the case of G19A G60A U87A C114G, the “polymerase ribozyme fitness (log ratio)” value is reported as -3.18. In the case of U9A G17U C62A C88U A91G U132A, the “polymerase ribozyme fitness (log ratio)” value is reported as -4.47. For C8U U78C, the “polymerase ribozyme fitness (log ratio)” value was 0.388. In the case of A5C U54C C82G C104A U131C, the “polymerase ribozyme fitness (log ratio)” value is reported as -1.29. For A26G G71U, the “polymerase ribozyme fitness (log ratio)” value was -3.23. With U7G G10C G45A G47A U59G A66C G77A the “polymerase ribozyme fitness (log ratio)” value was -2.15. In the case of U54C C70A C82A G128U, the “polymerase ribozyme fitness (log ratio)” value is reported as -5.17. With A6U G48U C56G C82A the “polymerase ribozyme fitness (log ratio)” value was -1.65. For G63A A66U U106A G117A, the “polymerase ribozyme fitness (log ratio)” value was -4.86. In the case of C12A C89A, the “polymerase ribozyme fitness (log ratio)” value is reported as -1.87. For A46U C62A U133A, the “polymerase ribozyme fitness (log ratio)” value was -2.52. In the case of C53A G71U, the “polymerase ribozyme fitness (log ratio)” value is reported as -1.5. In the case of A6U G48U G93A G110U, the “polymerase ribozyme fitness (log ratio)” value is reported as -2.34. With C79U C80U the “polymerase ribozyme fitness (log ratio)” value was -2.32. For G57C U116A, the “polymerase ribozyme fitness (log ratio)” value was -2.89. With C15U C62U the “polymerase ribozyme fitness (log ratio)” value was -1.95. With C53G C79U the “polymerase ribozyme fitness (log ratio)” value was -1.64. In the case of C12A G42A C70U U96A G135C, the “polymerase ribozyme fitness (log ratio)” value is reported as -4.85. In the case of G57C G60U C88A U106A, the “polymerase ribozyme fitness (log ratio)” value is reported as -0.528. For C12U C70A, the “polymerase ribozyme fitness (log ratio)” value was -0.649. With C11U A83G the “polymerase ribozyme fitness (log ratio)” value was -1.21.
